B1: IMCAS-364抗体 (全抗IgG1) (antibody, V domains shown)
VH: QVQLQESGGGVVQPGRSLRLSCAASGFTFSRYGMHWVRQAPGKGLEWVAVIWYDGSNKYYADSVKGRFTISRDNSKNTLYLQMNSLRADDTAVYYCAKQEGTYCSGGSCYSGLDYWGQGTLVTVSS
VL: not shown
notes: also called 金标抗体 (胶体金标记)
B2: IMCAS-72抗体 (全抗IgG1) (antibody, V domains shown)
VH: QVQLVESGGGLVQPGGSLRLSCAASGFTFSSYGMHWVRQAPGKGLEWVAVISYDGSDKYYADSVKGRFTISRDNSKNTLYLQMNSLRAEDTAVYYCARDRDRFGDQGGWFDPWGQGTLVTVSS
VL: not shown
notes: also called T2线抗体
B3: IMCAS-123抗体 (全抗IgG1) (antibody, V domains shown)
VH: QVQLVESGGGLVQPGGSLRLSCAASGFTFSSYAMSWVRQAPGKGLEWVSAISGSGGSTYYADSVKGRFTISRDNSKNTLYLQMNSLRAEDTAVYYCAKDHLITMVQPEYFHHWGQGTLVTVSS
VL: DIQMTQSPSSVSASVGDSVTITCRASQGISRWLAWYQQRPGKAPKLLIYAAGNLETGVPSRFSGSGSGTDFTLTISDLQAEDFATYYCQQADSFPLTFGGGTKVDIKR
notes: also called T1线抗体

How the values were obtained:
[1] = target: T1, SARS-CoV-2 Alpha variant RBD蛋白 (SARS-CoV-2, UniProt P0DTC2 319-541); test: SPR (Biacore 8K)
T1 construct: domain: RBD

[2] = target: SARS-CoV-2 Omicron variant RBD蛋白 (Omicron新型冠状病毒RBD蛋白) (SARS-CoV-2, UniProt P0DTC2 319-541); test: SPR (Biacore 8K)
[3] = target: SARS-CoV-2 Beta variant RBD蛋白 (Beta型新型冠状病毒刺突蛋白受体结合域段RBD蛋白) (SARS-CoV-2, UniProt P0DTC2 319-541); test: SPR (Biacore 8K)
[4] = target: T2, SARS-CoV-2 Delta variant RBD蛋白 (SARS-CoV-2, UniProt P0DTC2 319-541); test: SPR (Biacore 8K)
T2 construct: domain: RBD

Omicron BA.2-RBD = target: T3, Omicron BA.2-RBD (SARS-CoV-2, UniProt P0DTC2 319-541); test: lateral-flow sandwich, gold-labelled IMCAS-364 as detector (Table 4)
T3 construct: domain: RBD

Omicron BA.1-RBD = target: T4, Omicron BA.1-RBD (SARS-CoV-2, UniProt P0DTC2 319-541); test: lateral-flow sandwich, gold-labelled IMCAS-364 as detector (Table 5)
T4 construct: domain: RBD

Binder	Kd [1]	Kd [2]	Kd [3]	Kd [4]	binding result (Omicron BA.2-RBD)	binding result (Omicron BA.1-RBD)
B1	1.06 nM	2.19 nM	1.07 nM	–	–	–
B2	–	–	–	0.62 nM	no binding (tested: IMCAS-72 0.8mg/mL on the T2 line)	no binding (tested: IMCAS-72 2mg/mL on the T2 line)
B3	0.15 nM	1.41 nM	0.32 nM	0.48 nM	–	–

Source: CN114395035A (JIANGSU MICKEE MEDICAL TECH CO LTD; INST OF MICROBIOLOGY OF …, dated 2022)
